Numbering of substitutions follows the chain as printed.
Assays:
dHEXIM WT = target: T1, dHEXIM WT (Drosophila, UniProt Q7K4N7 1-349); assay: EMSA
T1 sequence: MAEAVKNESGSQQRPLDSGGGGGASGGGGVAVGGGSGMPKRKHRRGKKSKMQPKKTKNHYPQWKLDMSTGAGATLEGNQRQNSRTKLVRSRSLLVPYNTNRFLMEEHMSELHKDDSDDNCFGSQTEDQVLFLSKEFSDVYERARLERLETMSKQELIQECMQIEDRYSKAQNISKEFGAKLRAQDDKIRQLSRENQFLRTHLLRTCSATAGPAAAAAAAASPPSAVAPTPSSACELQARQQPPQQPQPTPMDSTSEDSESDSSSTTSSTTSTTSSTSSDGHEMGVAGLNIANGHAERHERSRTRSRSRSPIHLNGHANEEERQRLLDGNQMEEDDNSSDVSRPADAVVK

dHEXIM ILAA = target: T2, dHEXIM ILAA (Drosophila, UniProt Q7K4N7 1-349, K42I;H43L;R44A;R45A); assay: EMSA
T2 sequence: T1 sequence with K42I, H43L, R44A, R45A

B1: dsRNA oligo (TTF2 25-mer) (dsRNA)
RNA 1: CAAGCAAGAGGCAGAGAUCCCAGGU
RNA 2: ACCUGGGAUCUCUGCCUCUUGCUUG
binding result (dHEXIM WT): binds | binding result (dHEXIM ILAA): no binding
